Experimental data as given in publication PMC10107544, “Selecting Better Biocatalysts by Complementing Recoded Bacteria” (Angewandte Chemie (International Ed. in English), 2022).

Key:
Assay type in all cases: biochemical, Sinorhizobium meliloti
Settings in all cases: free enzyme; kinetic pH and metal not given
[1] = substrate: NC(=O)N[C@@H](Cc1ccc(O)c([N+](=O)[O-])c1)C(=O)O; experiment: HPLC saturation kinetics, Michaelis-Menten fit
Source text: HPLC saturation kinetics, Michaelis-Menten fit on […]

[2] = substrate: NC(=O)N[C@@H](Cc1ccc(O)c(I)c1)C(=O)O; experiment: saturation kinetics, Michaelis-Menten fit
Source text: (§1) saturation kinetics, Michaelis-Menten fit on […]

[3] = substrate: NC(=O)N[C@@H](Cc1ccc(O)c([N+](=O)[O-])c1)C(=O)O; experiment: saturation kinetics, Michaelis-Menten fit
Source text: as §1

| Protein | Km [1] | kcat [1] [s⁻¹] | kcat/Km [1] [M⁻¹ s⁻¹] | Km [2] | kcat [2] [s⁻¹] | kcat/Km [2] [M⁻¹ s⁻¹] | Km [3] | kcat [3] [s⁻¹] | kcat/Km [3] [M⁻¹ s⁻¹] |
| --- | --- | --- | --- | --- | --- | --- | --- | --- | --- |
| SmLcar (Sinorhizobium meliloti) (protein, recombinant, produced from plasmid and purified; bivalent metal-dependent) MAAPGENRRVNADRLWDSLMEMAKIGPGVAGGNNRQTLTDADGEGRRLFQSWCEEAGLSMGVDKMGTMFLTRPGTDPDALPVHIGSHLDTQPTGGKFDGVLGVLSGLEAVRTMNDLGIKTKHPIVVTNWTNEEGARFAPAMLASGVFAGVHTLEYAYARKDPEGKSFGDELKRIGWLGDEEVGARKMHAYFEYHIEQGPILEAENKQIGVVTHCQGLWWLEFTLTGREAHTGSTPMDMRVNAGLAMARILEMVQTVAMENQPGAVGGVGQMFFSPNSRNVLPGKVVFTVDIRSPDQAKLDGMRARIEAEAPKICERLGVGCSIEAVGHFDPVTFDPKLVETVRGAAEKLGYSHMNLVSGAGHDACWAAKVAPTTMIMCPCVGGLSHNEAEDISREWAAAGADVLFHAVLETAEIVE | 2.98 (0.87) mM | 0.000105 ± 1.01e-05 | 0.0354 ± 0.00977 | 13.8 (7.91) mM | 6.92e-05 ± 2.09e-05 | 0.005 ± 0.00315 |  |  |  |
| SmLcar (Sinorhizobium meliloti; L217G) (protein, recombinant, produced from plasmid and purified; bivalent metal-dependent) MAAPGENRRVNADRLWDSLMEMAKIGPGVAGGNNRQTLTDADGEGRRLFQSWCEEAGLSMGVDKMGTMFLTRPGTDPDALPVHIGSHLDTQPTGGKFDGVLGVLSGLEAVRTMNDLGIKTKHPIVVTNWTNEEGARFAPAMLASGVFAGVHTLEYAYARKDPEGKSFGDELKRIGWLGDEEVGARKMHAYFEYHIEQGPILEAENKQIGVVTHCQGGWWLEFTLTGREAHTGSTPMDMRVNAGLAMARILEMVQTVAMENQPGAVGGVGQMFFSPNSRNVLPGKVVFTVDIRSPDQAKLDGMRARIEAEAPKICERLGVGCSIEAVGHFDPVTFDPKLVETVRGAAEKLGYSHMNLVSGAGHDACWAAKVAPTTMIMCPCVGGLSHNEAEDISREWAAAGADVLFHAVLETAEIVE |  |  |  | 2.58 (0.46) mM | 0.232 | 89.9 | 8.91 (2.81) mM | 0.0929 ± 0.0136 | 10.4 |
| SmLcar (Sinorhizobium meliloti; F329Y/L217G) (protein, recombinant, produced from plasmid and purified; bivalent metal-dependent) MAAPGENRRVNADRLWDSLMEMAKIGPGVAGGNNRQTLTDADGEGRRLFQSWCEEAGLSMGVDKMGTMFLTRPGTDPDALPVHIGSHLDTQPTGGKFDGVLGVLSGLEAVRTMNDLGIKTKHPIVVTNWTNEEGARFAPAMLASGVFAGVHTLEYAYARKDPEGKSFGDELKRIGWLGDEEVGARKMHAYFEYHIEQGPILEAENKQIGVVTHCQGGWWLEFTLTGREAHTGSTPMDMRVNAGLAMARILEMVQTVAMENQPGAVGGVGQMFFSPNSRNVLPGKVVFTVDIRSPDQAKLDGMRARIEAEAPKICERLGVGCSIEAVGHYDPVTFDPKLVETVRGAAEKLGYSHMNLVSGAGHDACWAAKVAPTTMIMCPCVGGLSHNEAEDISREWAAAGADVLFHAVLETAEIVE |  |  |  | 1.45 (0.16) mM | 0.231 | 159 | 5.30 (0.88) mM | 0.78 | 148 |
| SmLcar (Sinorhizobium meliloti; F329C/L217G) (protein, recombinant, produced from plasmid and purified; bivalent metal-dependent) MAAPGENRRVNADRLWDSLMEMAKIGPGVAGGNNRQTLTDADGEGRRLFQSWCEEAGLSMGVDKMGTMFLTRPGTDPDALPVHIGSHLDTQPTGGKFDGVLGVLSGLEAVRTMNDLGIKTKHPIVVTNWTNEEGARFAPAMLASGVFAGVHTLEYAYARKDPEGKSFGDELKRIGWLGDEEVGARKMHAYFEYHIEQGPILEAENKQIGVVTHCQGGWWLEFTLTGREAHTGSTPMDMRVNAGLAMARILEMVQTVAMENQPGAVGGVGQMFFSPNSRNVLPGKVVFTVDIRSPDQAKLDGMRARIEAEAPKICERLGVGCSIEAVGHCDPVTFDPKLVETVRGAAEKLGYSHMNLVSGAGHDACWAAKVAPTTMIMCPCVGGLSHNEAEDISREWAAAGADVLFHAVLETAEIVE |  |  |  | 5.71 (1.14) mM | 4.84 | 849 | 2.92 (0.95) mM | 0.32 | 108 |
